The values that follow come from the supplement of paper PMC9112550, “Optimization of the antimicrobial peptide Bac7 by deep mutational scanning” (BMC Biology, 2022).

The series deals with Escherichia coli TOP10. Description: shrunken log2 fold change of peptide-encoding DNA abundance (4.5 h post-induction vs induction); higher = less antimicrobial activity (less host growth inhibition). To be noted: time post-induction: 4.5 h; library: site-saturation at positions 5, 18, 19, 20.
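Further: peptides expressed intracellularly from a pBAD plasmid library in pooled LB shake-flask culture, induced with 0.3% L-arabinose, DNA abundance read by NGS, three biological replicates, DESeq2 with apeglm shrinkage.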

As for RRIRLRPPRLPRPRPRPGQMPRP, the “shrunken log2 fold change” value was found to be 0.482. Take RRIRRRPPRLPRPRPRPRMDPRP: the “shrunken log2 fold change” value came out at 2.27.

On to RRIRWRPPRLPRPRPRPSKGPRP, for which the “shrunken log2 fold change” value is 0.0944. The same measure for RRIRRRPPRLPRPRPRPWHGPRP: -0.202; for RRIRVRPPRLPRPRPRPLISPRP: -0.0293. Turning to RRIRWRPPRLPRPRPRPPMNPRP, the “shrunken log2 fold change” value was -0.0715. In the case of RRIRGRPPRLPRPRPRPQHMPRP, the “shrunken log2 fold change” value was 0.231.

With RRIRQRPPRLPRPRPRPETIPRP, the “shrunken log2 fold change” value is -0.0395. Regarding RRIRDRPPRLPRPRPRPYLGPRP, the “shrunken log2 fold change” value is -0.021.

Regarding RRIRMRPPRLPRPRPRPWFCPRP, the “shrunken log2 fold change” value is -1.02.

RRIRNRPPRLPRPRPRPNEFPRP: the “shrunken log2 fold change” value was -0.692. Consider RRIRNRPPRLPRPRPRPGNTPRP, for which the “shrunken log2 fold change” value is -0.896. Next, RRIRYRPPRLPRPRPRPCFNPRP: -0.262; RRIRWRPPRLPRPRPRPQQYPRP: -0.284.

Consider RRIRMRPPRLPRPRPRPFRFPRP, for which the “shrunken log2 fold change” value was 0.089. Next, RRIRLRPPRLPRPRPRPPWKPRP: 0.153. For the sequence RRIRHRPPRLPRPRPRPGARPRP, the “shrunken log2 fold change” value was 0.335.

With RRIRNRPPRLPRPRPRPWVVPRP, the “shrunken log2 fold change” value was determined as 0.0152. The same measure for RRIRGRPPRLPRPRPRPISEPRP: 0.0792. In the case of RRIRVRPPRLPRPRPRPYWIPRP, the “shrunken log2 fold change” value is -0.163. Consider RRIRRRPPRLPRPRPRPTEFPRP, for which the “shrunken log2 fold change” value was -0.191. The same measure for RRIRCRPPRLPRPRPRPFRWPRP: 0.406. Regarding RRIRIRPPRLPRPRPRPEQWPRP, the “shrunken log2 fold change” value is -0.0237. With RRIRMRPPRLPRPRPRPGWAPRP, the “shrunken log2 fold change” value came to 0.965. Consider RRIRNRPPRLPRPRPRPWCRPRP, for which the “shrunken log2 fold change” value was -0.525. Next, RRIRFRPPRLPRPRPRPFTPPRP: -0.358. Consider RRIRCRPPRLPRPRPRPADWPRP, for which the “shrunken log2 fold change” value was found to be 0.29. The same measure for RRIRTRPPRLPRPRPRPTNHPRP: -0.622; for RRIRKRPPRLPRPRPRPWICPRP: 0.044; for RRIRNRPPRLPRPRPRPENPPRP: 0.0192. For the sequence RRIRLRPPRLPRPRPRPSGCPRP, the “shrunken log2 fold change” value turned out to be 0.345. Consider RRIRHRPPRLPRPRPRPRSGPRP, for which the “shrunken log2 fold change” value was -0.0415. On to RRIRQRPPRLPRPRPRPNRQPRP, for which the “shrunken log2 fold change” value stood at 0.0872. For RRIRQRPPRLPRPRPRPEVKPRP, the “shrunken log2 fold change” value is -0.0062. With RRIRFRPPRLPRPRPRPIEPPRP, the “shrunken log2 fold change” value amounted to 0.242. Regarding RRIRVRPPRLPRPRPRPVKLPRP, the “shrunken log2 fold change” value is -0.407. For the sequence RRIRIRPPRLPRPRPRPQWPPRP, the “shrunken log2 fold change” value was 0.238.

With RRIRRRPPRLPRPRPRPPIHPRP, the “shrunken log2 fold change” value was -0.11. Consider RRIRKRPPRLPRPRPRPRYVPRP, for which the “shrunken log2 fold change” value came out at 0.0611. For the sequence RRIRSRPPRLPRPRPRPDIFPRP, the “shrunken log2 fold change” value is -0.135. RRIRNRPPRLPRPRPRPHAHPRP: the “shrunken log2 fold change” value is -0.0247. The same measure for RRIRYRPPRLPRPRPRPQPFPRP: 0.00414; for RRIRYRPPRLPRPRPRPKQEPRP: -0.017; for RRIRSRPPRLPRPRPRPETAPRP: 0.667. For the sequence RRIRERPPRLPRPRPRPNLRPRP, the “shrunken log2 fold change” value was 0.0952. With RRIRNRPPRLPRPRPRPCALPRP, the “shrunken log2 fold change” value was -0.135. Take RRIRNRPPRLPRPRPRPARGPRP: the “shrunken log2 fold change” value was 0.86. The same measure for RRIRARPPRLPRPRPRPWVAPRP: 0.285; for RRIRYRPPRLPRPRPRPVSGPRP: -0.128; for RRIRPRPPRLPRPRPRPQPVPRP: 0.212. As to RRIRSRPPRLPRPRPRPGKRPRP, the “shrunken log2 fold change” value was -0.0142. RRIRNRPPRLPRPRPRPTMLPRP: the “shrunken log2 fold change” value was -0.241. The same measure for RRIRQRPPRLPRPRPRPICGPRP: -0.0167; for RRIRFRPPRLPRPRPRPQLKPRP: -0.0312. Turning to RRIRHRPPRLPRPRPRPDRGPRP, the “shrunken log2 fold change” value was -0.144.

As for RRIRPRPPRLPRPRPRPRVDPRP, the “shrunken log2 fold change” value is 0.263. Next, RRIRSRPPRLPRPRPRPYCSPRP: -0.094. Turning to RRIRNRPPRLPRPRPRPPWAPRP, the “shrunken log2 fold change” value was 0.38. For the sequence RRIRQRPPRLPRPRPRPPDWPRP, the “shrunken log2 fold change” value was 0.34. Next, RRIRNRPPRLPRPRPRPGWDPRP: -0.00506. Take RRIRPRPPRLPRPRPRPQCPPRP: the “shrunken log2 fold change” value was -0.172. As to RRIRKRPPRLPRPRPRPEIAPRP, the “shrunken log2 fold change” value is 2.48. As for RRIRHRPPRLPRPRPRPWYKPRP, the “shrunken log2 fold change” value is -1.2. As for RRIRCRPPRLPRPRPRPTWSPRP, the “shrunken log2 fold change” value came to 0.346. The same measure for RRIRARPPRLPRPRPRPLKIPRP: -0.165; for RRIRWRPPRLPRPRPRPTLDPRP: 0.745.

Regarding RRIRGRPPRLPRPRPRPMQFPRP, the “shrunken log2 fold change” value was found to be 0.184.

With RRIRCRPPRLPRPRPRPCWYPRP, the “shrunken log2 fold change” value came out at 0.0339. Regarding RRIRARPPRLPRPRPRPWTDPRP, the “shrunken log2 fold change” value is -0.0701. In the case of RRIRERPPRLPRPRPRPSHNPRP, the “shrunken log2 fold change” value was -0.903. Consider RRIRMRPPRLPRPRPRPPMGPRP, for which the “shrunken log2 fold change” value came to 0.921.

On to RRIRTRPPRLPRPRPRPDTFPRP, for which the “shrunken log2 fold change” value was 0.0276. In the case of RRIRIRPPRLPRPRPRPNSTPRP, the “shrunken log2 fold change” value was -0.722.

For RRIRYRPPRLPRPRPRPRAYPRP, the “shrunken log2 fold change” value was -0.0333.

For RRIRIRPPRLPRPRPRPSTSPRP, the “shrunken log2 fold change” value was -0.492. For the sequence RRIRTRPPRLPRPRPRPRVSPRP, the “shrunken log2 fold change” value worked out at 0.0622. Regarding RRIRKRPPRLPRPRPRPTWMPRP, the “shrunken log2 fold change” value worked out at 0.466. The same measure for RRIRSRPPRLPRPRPRPEATPRP: 0.72; for RRIRGRPPRLPRPRPRPQQGPRP: 0.0431. For RRIRFRPPRLPRPRPRPNNKPRP, the “shrunken log2 fold change” value is -0.646.

Regarding RRIRLRPPRLPRPRPRPTACPRP, the “shrunken log2 fold change” value is -0.0054. Regarding RRIRERPPRLPRPRPRPLQYPRP, the “shrunken log2 fold change” value was -0.286. Take RRIRMRPPRLPRPRPRPTKWPRP: the “shrunken log2 fold change” value came out at 0.445.

Take RRIRERPPRLPRPRPRPFSMPRP: the “shrunken log2 fold change” value is -0.366. Turning to RRIRIRPPRLPRPRPRPNRMPRP, the “shrunken log2 fold change” value was -0.0394. On to RRIRIRPPRLPRPRPRPDRNPRP, for which the “shrunken log2 fold change” value is -0.913. Next, RRIRWRPPRLPRPRPRPGWPPRP: 0.644; RRIRLRPPRLPRPRPRPWQPPRP: -0.0454.

In the case of RRIRTRPPRLPRPRPRPLFLPRP, the “shrunken log2 fold change” value was -0.184. Turning to RRIRIRPPRLPRPRPRPNDYPRP, the “shrunken log2 fold change” value is -0.312. Consider RRIRHRPPRLPRPRPRPGWNPRP, for which the “shrunken log2 fold change” value turned out to be 0.0316. Next, RRIRHRPPRLPRPRPRPLQYPRP: -0.582; RRIRMRPPRLPRPRPRPARPPRP: 1.09. With RRIRKRPPRLPRPRPRPCYCPRP, the “shrunken log2 fold change” value was -0.0227. As to RRIRDRPPRLPRPRPRPDGLPRP, the “shrunken log2 fold change” value is 0.107. As to RRIRQRPPRLPRPRPRPQYQPRP, the “shrunken log2 fold change” value was -1.46. Next, RRIRKRPPRLPRPRPRPLKCPRP: -0.072. For RRIRKRPPRLPRPRPRPAFRPRP, the “shrunken log2 fold change” value amounted to 0.576. For the sequence RRIRVRPPRLPRPRPRPADSPRP, the “shrunken log2 fold change” value is -0.0859. In the case of RRIRCRPPRLPRPRPRPYYWPRP, the “shrunken log2 fold change” value was -0.992.

As to RRIRSRPPRLPRPRPRPDSMPRP, the “shrunken log2 fold change” value is -0.339. Next, RRIRTRPPRLPRPRPRPWTYPRP: -0.00992; RRIRLRPPRLPRPRPRPIMTPRP: -0.397. Turning to RRIRIRPPRLPRPRPRPQDKPRP, the “shrunken log2 fold change” value is -0.855. In the case of RRIRPRPPRLPRPRPRPCQHPRP, the “shrunken log2 fold change” value is -0.161. Next, RRIRQRPPRLPRPRPRPWYRPRP: -0.49; RRIRVRPPRLPRPRPRPNCFPRP: -0.158. As for RRIRKRPPRLPRPRPRPEGLPRP, the “shrunken log2 fold change” value came out at 1.05. For RRIRVRPPRLPRPRPRPHFNPRP, the “shrunken log2 fold change” value was -0.705. The same measure for RRIRPRPPRLPRPRPRPRWEPRP: 0.444; for RRIRFRPPRLPRPRPRPHLSPRP: -0.219; for RRIRKRPPRLPRPRPRPKAAPRP: 0.142. The same measure for RRIRWRPPRLPRPRPRPAGIPRP: 0.186; for RRIRIRPPRLPRPRPRPGDRPRP: -0.123; for RRIRKRPPRLPRPRPRPWLTPRP: 0.0883. Take RRIRQRPPRLPRPRPRPVEMPRP: the “shrunken log2 fold change” value is -0.101. On to RRIRRRPPRLPRPRPRPEMEPRP, for which the “shrunken log2 fold change” value was found to be 0.0355. In the case of RRIRTRPPRLPRPRPRPDEPPRP, the “shrunken log2 fold change” value was -0.105. On to RRIRMRPPRLPRPRPRPPGKPRP, for which the “shrunken log2 fold change” value was 0.978. For RRIRERPPRLPRPRPRPPQSPRP, the “shrunken log2 fold change” value was determined as 0.0516.

With RRIRTRPPRLPRPRPRPAYLPRP, the “shrunken log2 fold change” value is -0.0925. Next, RRIRCRPPRLPRPRPRPVWLPRP: 0.0721; RRIRGRPPRLPRPRPRPGDTPRP: 0.616. On to RRIRQRPPRLPRPRPRPVQDPRP, for which the “shrunken log2 fold change” value is -0.0297. Consider RRIRDRPPRLPRPRPRPVCNPRP, for which the “shrunken log2 fold change” value is 0.861.
